# Read-outs that look alike come from different tables or passages of the source.
# T1: MSL2 (Drosophila melanogaster, UniProt P50534 1-773)
# T1 sequence: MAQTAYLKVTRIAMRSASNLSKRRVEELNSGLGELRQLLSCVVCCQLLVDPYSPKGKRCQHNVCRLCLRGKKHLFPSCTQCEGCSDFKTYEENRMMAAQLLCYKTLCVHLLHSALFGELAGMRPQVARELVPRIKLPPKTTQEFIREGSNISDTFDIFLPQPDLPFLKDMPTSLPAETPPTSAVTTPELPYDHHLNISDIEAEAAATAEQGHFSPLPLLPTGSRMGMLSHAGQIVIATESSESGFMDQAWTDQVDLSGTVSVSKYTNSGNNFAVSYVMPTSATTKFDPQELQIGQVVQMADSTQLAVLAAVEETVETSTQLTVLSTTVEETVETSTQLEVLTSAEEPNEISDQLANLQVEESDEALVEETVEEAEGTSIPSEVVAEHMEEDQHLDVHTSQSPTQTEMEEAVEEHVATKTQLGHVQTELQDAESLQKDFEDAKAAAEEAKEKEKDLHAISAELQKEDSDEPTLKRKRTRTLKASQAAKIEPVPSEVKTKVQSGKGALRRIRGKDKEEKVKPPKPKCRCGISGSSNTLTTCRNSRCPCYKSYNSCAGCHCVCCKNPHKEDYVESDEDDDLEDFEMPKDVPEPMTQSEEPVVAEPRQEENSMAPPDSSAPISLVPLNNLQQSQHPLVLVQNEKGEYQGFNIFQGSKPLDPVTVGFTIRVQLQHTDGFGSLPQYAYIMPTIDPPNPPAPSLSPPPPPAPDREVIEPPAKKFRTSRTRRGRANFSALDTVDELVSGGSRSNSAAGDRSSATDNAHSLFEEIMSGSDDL
# T2: MSL1 (Drosophila melanogaster, UniProt P50535 1-1039)
# T2 sequence: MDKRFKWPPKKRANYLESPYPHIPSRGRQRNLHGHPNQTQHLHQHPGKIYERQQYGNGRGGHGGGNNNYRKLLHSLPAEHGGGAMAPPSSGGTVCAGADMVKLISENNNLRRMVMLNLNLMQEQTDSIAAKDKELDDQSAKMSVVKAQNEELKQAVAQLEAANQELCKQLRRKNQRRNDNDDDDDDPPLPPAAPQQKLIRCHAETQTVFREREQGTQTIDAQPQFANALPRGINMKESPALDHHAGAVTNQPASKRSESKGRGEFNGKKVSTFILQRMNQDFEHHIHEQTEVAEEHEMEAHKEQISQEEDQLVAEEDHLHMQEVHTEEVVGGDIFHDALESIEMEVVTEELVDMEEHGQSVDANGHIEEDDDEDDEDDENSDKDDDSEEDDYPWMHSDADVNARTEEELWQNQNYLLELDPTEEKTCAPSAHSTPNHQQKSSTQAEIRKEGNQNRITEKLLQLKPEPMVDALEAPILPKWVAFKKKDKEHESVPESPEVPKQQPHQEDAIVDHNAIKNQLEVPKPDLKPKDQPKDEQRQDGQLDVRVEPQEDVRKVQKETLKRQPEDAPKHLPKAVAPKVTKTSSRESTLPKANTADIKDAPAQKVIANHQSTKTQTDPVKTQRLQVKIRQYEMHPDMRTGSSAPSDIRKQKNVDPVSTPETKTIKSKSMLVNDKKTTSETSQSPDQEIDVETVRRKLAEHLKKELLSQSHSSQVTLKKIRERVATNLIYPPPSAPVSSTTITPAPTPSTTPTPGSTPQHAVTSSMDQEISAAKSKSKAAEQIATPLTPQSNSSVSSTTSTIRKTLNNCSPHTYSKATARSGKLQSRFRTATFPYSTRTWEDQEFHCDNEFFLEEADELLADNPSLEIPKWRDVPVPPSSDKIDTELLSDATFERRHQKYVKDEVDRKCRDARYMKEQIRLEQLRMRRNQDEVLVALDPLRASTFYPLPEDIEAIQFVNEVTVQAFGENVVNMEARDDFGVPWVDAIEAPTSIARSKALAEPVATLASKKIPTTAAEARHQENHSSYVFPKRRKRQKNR
# What was measured:
# Test in all cases: UV crosslinking
# [1] = target: T3, DCCcore (MSL1-MSL2-MSL3-MOF) (Drosophila melanogaster, UniProt P50535;P50534;P50536;O02193 1-1039;1-773;1-512;1-827)
# T3 sequence (P50536 whole entry, chain 3 of 2): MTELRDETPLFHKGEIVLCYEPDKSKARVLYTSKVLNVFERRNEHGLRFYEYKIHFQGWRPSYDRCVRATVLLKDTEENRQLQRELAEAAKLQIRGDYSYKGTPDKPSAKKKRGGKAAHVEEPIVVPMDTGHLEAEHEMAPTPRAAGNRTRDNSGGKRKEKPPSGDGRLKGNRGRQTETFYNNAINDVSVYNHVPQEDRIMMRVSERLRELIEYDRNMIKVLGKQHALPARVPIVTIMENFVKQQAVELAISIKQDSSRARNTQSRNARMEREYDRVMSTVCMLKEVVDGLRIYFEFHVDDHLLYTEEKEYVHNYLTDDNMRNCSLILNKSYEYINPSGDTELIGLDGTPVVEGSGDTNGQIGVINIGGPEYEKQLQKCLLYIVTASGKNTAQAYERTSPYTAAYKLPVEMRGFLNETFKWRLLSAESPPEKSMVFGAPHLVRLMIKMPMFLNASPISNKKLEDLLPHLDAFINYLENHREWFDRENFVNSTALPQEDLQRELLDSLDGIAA
# T3 sequence (O02193 whole entry, chain 4 of 2): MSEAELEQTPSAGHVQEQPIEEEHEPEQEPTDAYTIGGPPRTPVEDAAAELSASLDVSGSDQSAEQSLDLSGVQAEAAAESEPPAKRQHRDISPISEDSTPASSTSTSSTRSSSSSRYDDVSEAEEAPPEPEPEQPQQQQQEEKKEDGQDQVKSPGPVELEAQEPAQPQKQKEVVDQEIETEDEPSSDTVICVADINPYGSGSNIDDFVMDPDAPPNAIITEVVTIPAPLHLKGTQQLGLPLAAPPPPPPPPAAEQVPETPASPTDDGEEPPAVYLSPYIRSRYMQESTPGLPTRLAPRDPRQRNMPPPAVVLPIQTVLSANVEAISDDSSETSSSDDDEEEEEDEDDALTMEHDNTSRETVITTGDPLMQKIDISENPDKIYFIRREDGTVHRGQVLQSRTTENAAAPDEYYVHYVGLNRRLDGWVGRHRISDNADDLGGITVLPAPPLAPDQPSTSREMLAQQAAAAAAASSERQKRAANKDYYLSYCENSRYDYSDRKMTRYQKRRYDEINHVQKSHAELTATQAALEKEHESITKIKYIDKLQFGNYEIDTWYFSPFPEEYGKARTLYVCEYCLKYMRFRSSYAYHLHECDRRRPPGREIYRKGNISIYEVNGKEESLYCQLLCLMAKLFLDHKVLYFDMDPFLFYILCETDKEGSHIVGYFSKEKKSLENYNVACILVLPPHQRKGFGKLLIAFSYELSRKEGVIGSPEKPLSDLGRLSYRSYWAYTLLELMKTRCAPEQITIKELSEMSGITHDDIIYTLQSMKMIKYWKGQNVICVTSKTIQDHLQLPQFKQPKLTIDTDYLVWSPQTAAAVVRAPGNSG
# MSL2 = target: T1, MSL2
# MSL1 = target: T2, MSL1
# [2] = target: T3, DCCcore (MSL1-MSL2-MSL3-MOF); remark: listed apart in the source
binder,measurement,setting,value
UGGGUAACGUUUUACGCGCCUU (structured_RNA) [roX2 SL7-3'],binding result,[1],binds
same,binding result,MSL2,binds
same,binding result,MSL1,binds
AUUAAGCAAAUAUAUAUGCAUAUAU (structured_RNA) [roX2 SL7-Loop],binding result,[2],no binding

# — PMC7528653
